Data from the domain aggregation screens of Martell et al. (2025).

Assay: soluble fraction after stress (log2 fold change); higher = more stays soluble; pooled small domains, quantitative proteomics
Details: stress: 50 degC
Procedure, shortened: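 After stress at 50°C, the amount of each protein still soluble was measured. This was done on pooled custom libraries of small protein domains, using high-throughput quantitative proteomics. The figure given is a base-two log fold change and stands for aggregation propensity, with higher values meaning more protein stays in solution.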

Sequence | soluble fraction (log2)
HMSTADGGYPSIVINDGRVIDTNLQKLGLDRSWLSAELKRQGKGSEKDIFLMTVNQRREVYISVKEA | -0.27
HMTDEYYSYIGKTGTTITVLRPAGIAEVEGERLNVVSEGEFIRKGAAILVKEVEGARILVEEVN | -0.381
HMIYSKSDLELFGIKKIDVMEENILMLILSEYELDQTPKNILIDEAVRLSKKFGADNAYKFVNATLDTLL | -0.944
HMLSAGETYTLGYLKASDGILFTAADGSEQTVMQRVQVRLYDNGDGTYTARLADDIAYSAVVTEDMIDK | -0.116
HMSDAGMNQIGDMFRAPDLMAKLAMNPATREYVSQPDFLAMMEEVKRNPSALNNHLRDPRMMNVLSVAM | -0.115
HMHTADDFKQLAKQTSNGQLRTRYLALYLFKNGETRTQIATYLGVARGSVNTWVSNYLAHGLEGLQSKP | -2.65
HMKDNIRSILEDIPNIGPGRRRALLKHFGSIEAIRRASLEDLIKVDGMNRNAALSIMEYFGM | -0.159
HMLQQKESAALGERLLNQALATLKVEPDAISWDRWEALAKEYGAKSQLDILADIGLGKRLSFVVAQALTKV | -0.535
HMEPQSRTAYRLIEAMIVTHELPPGSRISEASLSAKLGIGRTPIREALQRLSFEGTVKIVPRSGAFVSEI | -2.76
HMTPELTAEEREVLSLLGDEPRTLAELIAASGRDYAALSVLLMGLELSQAVRQLPGNRYERF | -0.934
HMKNYYELLGVAREASQDQIKKAYRKLARKYHPDVSKEADAETRMQELNVAYDTLSDAEKKREYDFQLDHP | 0.00768
HMRHSLAAALTELRRLAALDLGDFFRFEYVSHTDSLGGKQQAYTEGIRVSFGVYLGVNKKDRLNVDPVV | -3.44
HMLLRVGGLVKDGSVRTDNDLGIKFIIEDNLAEVSVLYNGILPDLFREGQGVIAEGKFIDNIFIANEIVA | -0.519
HMAPPPLAGAREALREQIRRGSLSARRGFDAYADALGLPAGTRGAHPIFAALQRLDYPQALRLLDQEPT | 0.0894
HMTFGEMLQYTNRLKEILESNAPQSIKDRRLANLMTDLEQAYGIPILRDQEFEKENPFLMQLYRTIS | -2.06
HMHSILDDIEGIGPARRKALMRHYMNLDAIKSATVEELAAVPSMNEKSAKAVHNFFHQQKKD | 0.242
HMSMSKISNLLEIMMIIQYKGLTTASELAQSLGVDKKTVYRYINSLSKANIPIYTKKGRYGGFYIDKNF | -1.19
HMRVDLATEVHSVLRRMMSRPPTLQEIRADLDGEEPGRVHEALDALRAAFRGGRGPKNPYESLKRSLRRG | 0.0134
HMEIYIDGNKYVGELRNGKPNGRGTITYTGDGSKYVGEWKNGKRYGRGKMAYTNGTTKEGVWKDDEFLYAT | 0.0597
HMSLDTASDKELLGLIVSEPIATRVLDAFRTLDATLFRTTPAELAAAAGVSSEHAQKIKAVAEIAARMLKP | -0.377
HMALRFMAYGRINGTNVHFRTGASASTASLGRYSRGTEFGVYDKIGGWYRVRLLSTGQEGYVYSRYLTLTG | -2.67
HMEETGFYIKLQDQEVVIFHNDQVTPYEYTGIREEVLPESELEKLREGFFVEDEKELYSVLENLS | -0.142
HMEIEETKKNSRTKIPENFDYKLINGLSNEIRAKLELIRPIDLLQASRIDGMTPAALTLVHLWIKKYSG | -0.338

Sequence | soluble fraction (log2)
HMGSVDMVYGDHKINSEHMDLSFKNQTAVLYDKVNYKSSLSMLSADKILVNFLNKYTKIEMNDENNNILIQ | 0.059
HMDAEEISILLEKAVLQLPEKQKMIFQLKYFEDLSYKDIQIITGGSIGGLKANYHHAVTKIEKLLS | -0.0727
HMGSDLVAWAQTRIGRHPEEAADVIAALIDRHGEARVRAASRSLLARKFAHASDLRTAIDAAIG | -0.0161
HMPETAQLTDIQVSRSQAHTGIFSLHYYLTGTDSRGERVRLEISGDDYTRLSGSSSVTVEYYRHTGRIVRY | -1.55
HMSKSKSEIDKDPHFWSSLFQRIGEGESLRKIAKDSKIPKSTLWAWIRNDPQLALRYSEAQQ | 0.064
HMEKEKIKEALIGYFEAEPEEKFTVQELADKLKMNKAGQFNFVVQAVAQLEHDKVITLDDEGNFSLVRHE | -0.623
HMEVMYFIYQQEEPMRIDKFLVNEMEDFSRNSIQIYIKDNHVLVNDKVVKANYILKKGDAISITIPDPI | -0.404
HMANVQLAKNLKTLRKKYNYTQQDVSTFLNITRQAYSHYEQALREPDLNTLVHLSRFYQVTLDELI | -3.8
HMDEYTAVDSRLDLELAMKRLKPEEAEVLRLVFDYGLPQRAIAERLGVSQMSVSRMQRRAIGKLKRWLSDN | -1.08
HMNHAPSLMRKIRRGLKEGRNPDDLLVNAKSISDYYYRSLSFYLLAPHFSSKSKQYKQVISLANS | 0.036
HMKLTNNDFIRLKTFMYNNYGINLENKKTLIETRLAIVVKRLGFNDFKSYIDNLMRDKTGEQASIIVGKLT | -0.58
HMESSKLQASIINYLERRPTQKFTAEELFKGLSLEKASVFNELVKELTSLERSHKVEITADDKFKIARPQ | -0.126
HMGEVQALIPGLVSKLFVVEGESVKIGQKLIILEAMKMENEIASPINGTIKKIYIKSGDKIDKGSIIMEIT | -0.336
HMSRLLTTRQREVFEVATREGFWDVPRRINLSELAKVLGVAKSTLSSQLQRIESAVFHAFTDEIRRQS | -2.16
HMDYNMEEWSLTADQLKSGDTILILNLGKTATLLESTRGKKNVRVRMGNIKTIVETSSIRGNPHQ | -0.878
HMAVTNLTAKQISDTRWRVTWDSTLASPTYYVYRDGLLMMQTRQELYEFDAARGEQVQIDVLDDMAAAPAE | -0.741
HMARRTPPPTVSELNALLRVAAPHIQRVILLGIYTGARIGPSELFSLKWDDVDLTRGVIGIRL | -0.0306
HMKPVSEMDNMEWVREQYFQNMIYEIGEWVKDKKTGIVGEIVKRGTNYVTIVQEDFSLHKIWLEDLETTE | -0.325
HMLLFSVADIVKRSKRILSFKTDAELAAYFGVSRSTLSNWIARNSIDFPLLLSKMKDVDYTWLILGKGTPG | -3.97
HMDSRVRHAVLTTLLGKRIVDDLVEKGELPGTPLVLATAPGLDRDLEQLIAQRVVTALLTTV | -0.082
HMTAFEPYLVKVMASVLNIRKGPGTSYAITGQIKDKGTYTIVAESGSWGKLKSGAGWISLSYTSKAGKA | -0.67
HMALDLPVKRVKGKEYYYYKVKKGESLYGISKHLGLPLDSIVKSNPSVADGVRKGDMLLFPLEEYT | -0.307
HMIPSLTITVNEHSRQITRGTSLYTLRDALYPDADVLVVNGHPADSDRHLEEGDAVVLIRRGA | -0.275

Sequence | soluble fraction (log2)
HMNTPNYDVLYRGLADADAGQIMEALQKSNIPFKVDSHSGVLLVPADQVHEARLKLASQGLPRG | 0.0262
HMGTRHPLPYAYARANTVLLEDDGDRLVLWAPENVSLTALGEVLRRFDVDALERESSSTLANRIAVAYAG | -0.751
HMEELGKVRPELDGNEIAKVLGITPGPVLGRAYTYLLSVRLDEGPIGPDVARERLLAWWAEQPES | -1.28
HMIQVNKTQALIIEEMRDNPNITLLELQKTLSLGRTAIQNNVSSLRKRQIIKRVGSNKNGYWEVTDK | -1.95
HMLYETLKKGDQGTSVKTLQEKLKALGYLTGAADGKYGAGTETAVKSFQKAAGLTETGTADPETLSAVYAA | 0.17
HMGDTPVDFSEFIRWVDTGVVDRVELTGNEIVGTSSSGERFSTYAPPQYEGLGNKLIERDIVVVATAA | -0.164
HMGHEALSSKLDEIQGVGKEKRSLLLDHFKTFERIKNASMEELEAVPSLGKNTAKAVFRFFHS | 0.07
HMETIGKRVRAARQELGLTMKQLHEQTGLSTGNISDIENDRNTPSVSSLVALGRALRRSLDWLLTGEE | -0.252
HMKYNETEFKNLVAKLYNGEIEIVGKFTGLSYPILVKDKYGIMLSQKANLILNYRPTINIALNKTEYAMN | -0.0487
HMDLLKANNLSQINVDKLTDEEILKYSQQLKQSGLTESQAEQIAIARGMPATEIAKLKQRLISLTNMQ | 0.133
HMARAPIYPDGLTQREVEVLSLVAAGKTDREIAEELFIALRTVTTHVGNILNKIGAANRTEAAGYATRQGL | -0.459
HMTEELQDMESRIIEAAKRVFVRKGYEATKMSDIALEVGLGRTALHYYFRTKEMLFDAIFGRLMGV | -0.385
HMNELTDKQILLFSNKLAHNIPFSSKYSKPGESYEEFAERLANELIDPQKVKLYKPYLEEVGFK | 0.302
HMKEKQLMTLDDDLYAFLLKHPGIIQKDIYNHFPYDIKGVIADTLYAWDKTGKIKRTKSGNSYIIYT | -0.0536
HMIDDNTIIQIGDSYSKSIRLLGEPIELKNRSLNQKSYFMAVYDFKGRRYRLFFENDVLFDILRD | -1.86
HMWDEMKDQKLVEALLLLREDERKLIYQHVFEERTFDDISRINGLPPYKVKGIYYYAIRKIRKWMG | -1.51
HMLKETGVITASVLNVREDIGTSSNIVAQLKKGMEVNILESRAIAGSETWYRIDAGSIKGWIFGDYI | -3.62
HMEPTIGTATVTSGSRLNMRSAKSTSASVVTRIPSGATVGVISYASDWSKVTYNGYTGYVSSPYISMNG | -0.198
HMPEPMKLSDLPPELWQRVSDLFDEVIDLPETDRIPYIRNLWGSEPLVAKELMALLVAAANVD | -0.274
HMNNPLLDKVYQLMKQNNITEEEIVRAVAMKGYFPDDMKLGDYPDDFIDGVLIGAWDQIKQFIINNISPFK | 0.0631
HMSMTLSVLDDVRGLSESRRKQLFHSFGSIKKLREQSKETLMSIPYLPEKVALELYDKLHEE | -0.218
HMSRVTVDVNPDVLQWAIDKKGKGDIKNKFPKIDEWLNGISKPTIHQLENFAKYVSVPFGYLLLSKPPVE | 0.276
